T1: Gp32 (T4 bacteriophage, UniProt P03695 1-301)
T1 sequence: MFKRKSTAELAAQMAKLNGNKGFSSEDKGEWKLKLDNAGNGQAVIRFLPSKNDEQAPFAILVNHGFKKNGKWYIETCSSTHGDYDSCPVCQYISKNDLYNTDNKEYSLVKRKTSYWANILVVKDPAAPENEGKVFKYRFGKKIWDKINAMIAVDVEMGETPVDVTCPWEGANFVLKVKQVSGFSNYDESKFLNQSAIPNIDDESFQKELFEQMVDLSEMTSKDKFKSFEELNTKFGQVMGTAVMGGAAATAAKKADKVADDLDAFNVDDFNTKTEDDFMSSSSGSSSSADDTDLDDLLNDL

B1: 6-FAM-oligo-dT60 (ssDNA)
DNA: TTTTTTTTTTTTTTTTTTTTTTTTTTTTTTTTTTTTTTTTTTTTTTTTTTTTTTTTTTTT

Columns and labels:
[1] = biological target: RPA (CBP-Rfa1, Rfa2, Rfa3) (Saccharomyces cerevisiae, UniProt P22336;P26754;P26755 1-621;1-273;1-122); assay: fluorescence anisotropy; 0.5 M NaCl; apparent Kd, Hill coefficient 2.460; 30 mM HEPES pH 7.5, 30 mM NaCl, 0.25 mM EDTA, 10% glycerol, 0.01% NP-40, 1 mM DTT, plus 0.5 M NaCl for dT30 (no supplemental NaCl for dT60), 2.5 nM DNA, room temperature, 30 min; conditions: protein: recombinant; tags: CBP on Rfa1; copies: 1;1;1; label: 6-FAM; single strand
Gp32 = biological target: T1, Gp32; assay: fluorescence anisotropy; 0.5 M NaCl; apparent Kd, Hill fit; 30 mM HEPES pH 7.5, 30 mM NaCl, 0.25 mM EDTA, 10% glycerol, 0.01% NP-40, 1 mM DTT, plus 0.5 M NaCl for dT30 (no supplemental NaCl for dT60), 2.5 nM DNA, room temperature, 30 min; conditions: protein: commercial; label: 6-FAM; single strand
RPA-deltaOB-F-deltaWH = RPA-deltaOB-F-deltaWH (Saccharomyces cerevisiae, UniProt P22336;P26754;P26755 131-621;1-202;1-122); assay: as above; conditions: protein: recombinant; tags: CBP on Rfa1; 3xFlag on Rfa2; copies: 1;1;1; label: 6-FAM; single strand
Chain of RPA-deltaOB-F-deltaWH (P22336 131-621, stated change not applied, chain 1 of 3): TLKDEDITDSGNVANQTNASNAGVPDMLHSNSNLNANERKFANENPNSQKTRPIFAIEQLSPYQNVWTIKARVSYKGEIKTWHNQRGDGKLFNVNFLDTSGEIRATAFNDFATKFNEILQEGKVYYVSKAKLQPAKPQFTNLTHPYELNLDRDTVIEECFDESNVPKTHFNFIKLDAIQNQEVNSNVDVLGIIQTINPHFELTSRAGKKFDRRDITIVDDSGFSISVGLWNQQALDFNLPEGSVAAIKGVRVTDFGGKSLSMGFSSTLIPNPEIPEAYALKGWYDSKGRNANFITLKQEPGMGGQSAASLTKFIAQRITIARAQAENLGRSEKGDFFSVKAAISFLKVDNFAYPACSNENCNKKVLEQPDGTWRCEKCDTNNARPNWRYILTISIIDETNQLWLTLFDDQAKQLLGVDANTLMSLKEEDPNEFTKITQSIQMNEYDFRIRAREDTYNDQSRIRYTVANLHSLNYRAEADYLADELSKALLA
Chain of RPA-deltaOB-F-deltaWH (P26754 1-202, stated change not applied, chain 2 of 3): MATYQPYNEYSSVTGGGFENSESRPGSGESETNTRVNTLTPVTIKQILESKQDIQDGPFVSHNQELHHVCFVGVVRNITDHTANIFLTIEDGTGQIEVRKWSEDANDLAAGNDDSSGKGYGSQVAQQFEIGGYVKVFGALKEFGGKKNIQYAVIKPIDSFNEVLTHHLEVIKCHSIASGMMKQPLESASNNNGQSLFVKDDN
Chain of RPA-deltaOB-F-deltaWH (P26755 whole entry, stated change not applied, chain 3 of 3): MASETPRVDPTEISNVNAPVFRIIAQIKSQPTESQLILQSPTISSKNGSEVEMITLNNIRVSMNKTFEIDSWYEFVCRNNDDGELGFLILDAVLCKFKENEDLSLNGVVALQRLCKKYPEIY

RPA-Tri-C (OB-C/D/E) = RPA-Tri-C (OB-C/D/E) (Saccharomyces cerevisiae, UniProt P22336;P26754;P26755 442-621;32-182;1-122); assay: as above; conditions: protein: recombinant; tags: Rfa2 C-terminal MxeGyrA intein-CBD-6xHis (in expression construct); copies: 1;1;1; label: 6-FAM; single strand
Chain of RPA-Tri-C (OB-C/D/E) (P22336 442-621, chain 1 of 3): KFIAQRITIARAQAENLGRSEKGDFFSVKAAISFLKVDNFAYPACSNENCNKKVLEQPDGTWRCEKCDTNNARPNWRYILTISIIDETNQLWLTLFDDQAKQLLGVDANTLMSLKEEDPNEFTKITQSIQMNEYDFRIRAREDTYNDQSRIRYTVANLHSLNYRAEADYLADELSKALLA
Chain of RPA-Tri-C (OB-C/D/E) (P26754 32-182, chain 2 of 3): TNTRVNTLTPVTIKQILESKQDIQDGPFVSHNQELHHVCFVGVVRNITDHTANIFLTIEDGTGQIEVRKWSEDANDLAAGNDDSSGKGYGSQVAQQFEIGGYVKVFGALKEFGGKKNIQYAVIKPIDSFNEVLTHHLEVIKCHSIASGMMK
Chain of RPA-Tri-C (OB-C/D/E) (P26755 whole entry, chain 3 of 3): as the sequence (P26755 whole entry, stated change not applied, chain 3 of 3) above

EcSSB = EcSSB (Escherichia coli, UniProt P0AGE0 1-178); assay: as above; conditions: protein: commercial; chain copies: 4; label: 6-FAM; single strand
Chain of EcSSB (P0AGE0 whole entry): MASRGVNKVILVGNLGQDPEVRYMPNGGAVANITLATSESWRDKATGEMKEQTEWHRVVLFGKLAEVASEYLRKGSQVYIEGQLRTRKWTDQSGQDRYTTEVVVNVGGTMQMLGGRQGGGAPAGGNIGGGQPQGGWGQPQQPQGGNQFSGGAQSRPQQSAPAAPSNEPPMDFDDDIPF

Pol-alpha/primase = Pol-alpha/primase (UniProt P13382;P38121;P20457;P10363 1-1468;1-705;1-528;1-409); assay: fluorescence anisotropy; DNA pre-bound with equimolar (2.5 nM) RPA-deltaOB-F (P8); matches naked DNA; 30 mM HEPES pH 7.5, 30 mM NaCl, 0.25 mM EDTA, 10% glycerol, 0.01% NP-40, 1 mM DTT, plus 0.5 M NaCl for dT30 (no supplemental NaCl for dT60), 2.5 nM DNA, room temperature, 30 min; conditions: protein: recombinant; copies: 1;1;1;1; label: 6-FAM; single strand
Chain of Pol-alpha/primase (P13382 whole entry, chain 1 of 4): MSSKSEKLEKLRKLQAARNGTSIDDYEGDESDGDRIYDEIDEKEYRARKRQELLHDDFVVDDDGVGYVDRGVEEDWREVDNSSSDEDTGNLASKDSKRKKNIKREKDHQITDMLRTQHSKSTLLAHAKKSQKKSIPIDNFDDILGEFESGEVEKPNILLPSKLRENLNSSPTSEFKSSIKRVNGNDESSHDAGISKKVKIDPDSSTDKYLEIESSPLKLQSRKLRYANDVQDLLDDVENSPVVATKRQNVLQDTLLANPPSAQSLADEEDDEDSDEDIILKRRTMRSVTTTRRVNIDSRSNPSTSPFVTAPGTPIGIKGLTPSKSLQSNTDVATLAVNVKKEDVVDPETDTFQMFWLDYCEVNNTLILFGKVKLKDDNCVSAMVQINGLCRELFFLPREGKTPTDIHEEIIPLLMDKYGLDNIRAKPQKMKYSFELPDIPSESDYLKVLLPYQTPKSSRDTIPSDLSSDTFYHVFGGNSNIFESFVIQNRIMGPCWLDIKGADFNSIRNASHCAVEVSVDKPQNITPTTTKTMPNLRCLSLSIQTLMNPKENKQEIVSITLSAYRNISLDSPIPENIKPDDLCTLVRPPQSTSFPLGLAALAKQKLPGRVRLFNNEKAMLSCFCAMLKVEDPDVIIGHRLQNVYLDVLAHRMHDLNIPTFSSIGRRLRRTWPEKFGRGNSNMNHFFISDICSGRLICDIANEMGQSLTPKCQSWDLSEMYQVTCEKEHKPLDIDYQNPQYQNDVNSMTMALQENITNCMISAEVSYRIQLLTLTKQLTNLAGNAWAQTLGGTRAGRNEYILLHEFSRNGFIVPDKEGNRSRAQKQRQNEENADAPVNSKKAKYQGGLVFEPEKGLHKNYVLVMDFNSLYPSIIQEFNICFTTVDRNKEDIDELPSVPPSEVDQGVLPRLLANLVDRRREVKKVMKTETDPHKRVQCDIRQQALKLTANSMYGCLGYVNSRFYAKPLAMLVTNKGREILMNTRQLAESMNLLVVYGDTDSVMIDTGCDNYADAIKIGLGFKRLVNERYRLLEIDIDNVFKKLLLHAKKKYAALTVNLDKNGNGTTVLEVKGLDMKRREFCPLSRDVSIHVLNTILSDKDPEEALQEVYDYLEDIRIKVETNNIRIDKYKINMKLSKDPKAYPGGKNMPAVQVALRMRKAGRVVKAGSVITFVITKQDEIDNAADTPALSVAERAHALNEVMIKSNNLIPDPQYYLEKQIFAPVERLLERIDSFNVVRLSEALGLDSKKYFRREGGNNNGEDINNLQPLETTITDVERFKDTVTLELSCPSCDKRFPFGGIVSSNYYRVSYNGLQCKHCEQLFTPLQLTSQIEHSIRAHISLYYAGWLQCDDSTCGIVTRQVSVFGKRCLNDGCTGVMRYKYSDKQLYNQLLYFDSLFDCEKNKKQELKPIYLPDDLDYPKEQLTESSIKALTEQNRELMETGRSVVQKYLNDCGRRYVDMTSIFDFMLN
Chain of Pol-alpha/primase (P38121 whole entry, chain 2 of 4): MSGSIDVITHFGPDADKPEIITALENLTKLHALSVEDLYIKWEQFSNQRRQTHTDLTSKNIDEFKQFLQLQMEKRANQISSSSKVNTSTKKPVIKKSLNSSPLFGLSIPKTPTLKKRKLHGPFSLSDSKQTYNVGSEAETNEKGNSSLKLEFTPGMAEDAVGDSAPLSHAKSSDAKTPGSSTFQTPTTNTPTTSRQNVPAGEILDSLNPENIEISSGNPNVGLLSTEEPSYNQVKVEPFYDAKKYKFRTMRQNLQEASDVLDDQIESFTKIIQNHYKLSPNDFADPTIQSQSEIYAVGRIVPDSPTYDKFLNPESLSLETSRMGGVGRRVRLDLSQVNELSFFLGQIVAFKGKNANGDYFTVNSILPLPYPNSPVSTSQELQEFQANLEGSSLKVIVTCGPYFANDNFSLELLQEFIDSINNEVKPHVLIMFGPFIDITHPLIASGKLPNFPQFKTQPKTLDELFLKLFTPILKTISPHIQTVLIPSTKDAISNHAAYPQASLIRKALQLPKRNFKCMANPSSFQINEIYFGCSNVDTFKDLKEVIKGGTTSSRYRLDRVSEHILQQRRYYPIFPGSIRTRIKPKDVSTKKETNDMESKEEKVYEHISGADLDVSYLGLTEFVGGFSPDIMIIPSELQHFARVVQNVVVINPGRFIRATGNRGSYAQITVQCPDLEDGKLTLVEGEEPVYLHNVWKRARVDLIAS
Chain of Pol-alpha/primase (P20457 whole entry, chain 3 of 4): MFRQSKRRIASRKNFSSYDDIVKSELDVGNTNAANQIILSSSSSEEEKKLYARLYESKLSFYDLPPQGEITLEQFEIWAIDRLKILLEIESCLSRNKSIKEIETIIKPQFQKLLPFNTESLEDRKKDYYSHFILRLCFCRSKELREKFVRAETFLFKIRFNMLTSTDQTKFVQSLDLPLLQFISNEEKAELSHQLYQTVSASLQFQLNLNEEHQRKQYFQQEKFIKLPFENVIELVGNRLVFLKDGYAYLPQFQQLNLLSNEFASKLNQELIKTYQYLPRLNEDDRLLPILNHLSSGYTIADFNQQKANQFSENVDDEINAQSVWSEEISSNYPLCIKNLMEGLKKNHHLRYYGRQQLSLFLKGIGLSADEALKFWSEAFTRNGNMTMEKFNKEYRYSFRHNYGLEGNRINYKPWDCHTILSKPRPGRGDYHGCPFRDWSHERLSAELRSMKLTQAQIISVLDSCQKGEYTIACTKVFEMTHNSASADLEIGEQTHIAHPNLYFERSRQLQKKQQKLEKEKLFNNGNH
Chain of Pol-alpha/primase (P10363 whole entry, chain 4 of 4): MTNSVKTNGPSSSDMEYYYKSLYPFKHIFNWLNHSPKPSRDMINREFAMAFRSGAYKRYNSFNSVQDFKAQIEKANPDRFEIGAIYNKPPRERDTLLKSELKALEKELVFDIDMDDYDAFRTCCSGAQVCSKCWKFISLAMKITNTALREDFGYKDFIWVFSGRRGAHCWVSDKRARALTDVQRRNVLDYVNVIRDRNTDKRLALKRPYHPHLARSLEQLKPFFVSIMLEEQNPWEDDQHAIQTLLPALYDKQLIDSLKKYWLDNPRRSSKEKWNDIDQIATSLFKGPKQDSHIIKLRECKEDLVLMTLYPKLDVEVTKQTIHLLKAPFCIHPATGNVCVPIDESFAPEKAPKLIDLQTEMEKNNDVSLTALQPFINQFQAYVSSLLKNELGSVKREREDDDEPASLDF

Binder	Kd [1] [nM]	Kd (Gp32) [nM]	Kd (RPA-deltaOB-F-deltaWH) [nM]	Kd (RPA-Tri-C (OB-C/D/E)) [nM]	Kd (EcSSB) [nM]	binding result (Pol-alpha/primase)
TTTTTTTTTTTTTTTTTTTTTTTTTTTTTT (ssDNA) [6-FAM-oligo-dT30]	1.73	~18	~2.04	~2.97	~0.11	
B1						binds
